# Data from patent US20180118837A1 (Hoffmann-La Roche, published 2018).
# T1: HER4 ECD-HRG complex (human, UniProt Q15303 26-651)
# T1 construct: Her-4 ECD pre-incubated with a 5-fold molar excess of Heregulin; also called Her-4 ECD/Heregulin complex
# T1 sequence 1: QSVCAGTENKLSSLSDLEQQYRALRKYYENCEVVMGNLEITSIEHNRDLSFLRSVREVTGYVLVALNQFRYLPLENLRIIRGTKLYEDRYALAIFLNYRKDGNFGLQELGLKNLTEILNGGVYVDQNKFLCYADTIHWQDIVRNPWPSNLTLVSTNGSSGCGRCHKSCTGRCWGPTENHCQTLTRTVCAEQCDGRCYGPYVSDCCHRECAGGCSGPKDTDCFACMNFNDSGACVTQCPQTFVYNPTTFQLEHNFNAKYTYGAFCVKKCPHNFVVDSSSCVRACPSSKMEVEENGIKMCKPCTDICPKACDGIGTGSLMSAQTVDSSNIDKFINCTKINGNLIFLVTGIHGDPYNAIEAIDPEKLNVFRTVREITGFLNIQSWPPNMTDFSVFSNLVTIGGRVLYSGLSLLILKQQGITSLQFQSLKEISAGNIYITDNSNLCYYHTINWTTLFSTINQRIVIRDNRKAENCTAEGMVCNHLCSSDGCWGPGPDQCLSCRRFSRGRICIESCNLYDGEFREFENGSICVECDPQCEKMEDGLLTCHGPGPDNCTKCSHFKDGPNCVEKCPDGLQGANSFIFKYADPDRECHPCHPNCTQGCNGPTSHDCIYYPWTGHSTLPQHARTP
# T1 sequence 2: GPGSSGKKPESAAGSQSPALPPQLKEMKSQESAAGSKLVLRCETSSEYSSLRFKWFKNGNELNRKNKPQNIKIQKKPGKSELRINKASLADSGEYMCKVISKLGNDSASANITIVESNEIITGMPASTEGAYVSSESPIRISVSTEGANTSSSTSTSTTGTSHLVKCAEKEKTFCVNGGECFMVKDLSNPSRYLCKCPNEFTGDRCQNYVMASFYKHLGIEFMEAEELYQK
# B1: anti-HER3/HER4 antibody M-05-74 (antibody, V domains shown)
# VH: QVQLQQSGAELAKPGASVKMSCKTSGYTLTDYWIHWVKQRPGQGLEWIGYINPYTGYTESNQKFKDKATLTADKSSNTAYIQLSSLTSEDSAVYYCARPYYYGDYWGQGTTLTVSS
# VL: QIVLTQSPAIMSASPGERVTITCSASSSVSYMHWFQQKPGTSPKLLIYSTSNLASGVPARFSGSGSGTSYSLTISRMEAEDAATYYCQQRSSYPFTFGSGTKLEIK
# notes: Murine monoclonal antibody from hybridoma (culture supernatant or purified full length); also called M-074; M-5-74
# B2: huMab M-05-74_5 (antibody, V domains shown)
# VH: QVQLVQSGAELKKPGASVKVSCKASGYTLTDYWIHWVRQAPGQGLEWMGYINPYTGYTESNQKFQGRVTMTADTSTSTAYMELSSLRSEDTAVYYCARPYYYGDYWGQGTTVTVSS
# VL: EIVLTQSPATLSLSPGERATLSCRASSSVSYMHWYQQKPGQAPRLLIYSTSNLATGIPARFSGSGSGTDFTLTISSLEPEDFAVYYCQQRSSYPFTFGQGTKLEIK
# notes: Humanized variant of M-05-74
# B3: huMab M-05-74_6 (antibody, V domains shown)
# VH: B2 VH
# VL: DIQMTQSPSSLSASVGDRVTITCRASSSVSYMHWFQQKPGKAPKLLIYSTSNLQSGVPSRFSGSGSGTDFTLTISSLQPEDFATYYCQQRSSYPFTFGQGTKLEIK
# notes: Humanized variant of M-05-74
# Tests used:
# [1] = target: SBP-tagged HER3-ECD (human); assay: ELISA-type assay, 10 nM Eu-labelled Heregulin-beta on plate-bound SBP-tagged HER3-ECD, M-05-74 titrated
# SBP-tagged HER3-ECD (human), sequence (chain, as listed by the source limits assumed, form in doubt): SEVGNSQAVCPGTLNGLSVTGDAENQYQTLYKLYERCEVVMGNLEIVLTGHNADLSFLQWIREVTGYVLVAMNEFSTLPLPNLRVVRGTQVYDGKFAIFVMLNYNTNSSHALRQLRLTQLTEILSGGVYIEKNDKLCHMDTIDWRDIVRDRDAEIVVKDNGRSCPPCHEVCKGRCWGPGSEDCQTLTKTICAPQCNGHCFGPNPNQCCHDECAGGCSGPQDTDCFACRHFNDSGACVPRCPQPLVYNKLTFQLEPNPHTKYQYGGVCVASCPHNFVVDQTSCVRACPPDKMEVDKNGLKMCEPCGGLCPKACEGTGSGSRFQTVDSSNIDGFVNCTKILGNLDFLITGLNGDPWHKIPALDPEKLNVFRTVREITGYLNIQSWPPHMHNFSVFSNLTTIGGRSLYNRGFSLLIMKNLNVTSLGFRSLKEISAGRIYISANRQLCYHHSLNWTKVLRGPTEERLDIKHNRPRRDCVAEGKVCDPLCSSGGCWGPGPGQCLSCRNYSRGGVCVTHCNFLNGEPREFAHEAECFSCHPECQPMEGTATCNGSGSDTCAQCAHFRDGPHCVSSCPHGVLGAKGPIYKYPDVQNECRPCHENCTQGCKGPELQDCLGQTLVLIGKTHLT
# HER3 ECD-HRG complex [2] = target: T2, HER3 ECD-HRG complex (human, UniProt P21860 20-643); assay: SPR Biacore T100, antibody captured
# T2 construct: Her-3 ECD pre-incubated with a 5-fold molar excess of Heregulin; also called Heregulin/Her-3 ECD
# T2 sequence (P21860 20-643 limits assumed, one chain of several): as the sequence (chain, as listed by the source limits assumed, form in doubt) above
# HER4 ECD-HRG complex = target: T1, HER4 ECD-HRG complex; assay: SPR Biacore T100, antibody captured
# HER3 ECD-HRG complex [3] = target: T2, HER3 ECD-HRG complex; assay: binding affinity; method not restated (evaluated 'as described above')
# [4] = target: T3, human recombinant HER3 ECD (human, UniProt P21860 20-643); assay: binding affinity; method not restated (evaluated 'as described above'); HER3-ECD without HRG
# T3 construct: 68 kDa recombinant protein; also called human-Her3-ECD; full length Her3 ECD
# T3 sequence (P21860 20-643): as the sequence (chain, as listed by the source limits assumed, form in doubt) above
# [5] = target: T3, human recombinant HER3 ECD; assay: binding affinity; method not restated (evaluated 'as described above')
molecule,measurement,setting,value
"Europium-labeled Heregulin-beta (PeproTech, Cat. #100-03) (from UniProt Q02297-11 122-186) (ligand)","time-resolved fluorescence signal at the plateau, in the presence of M-05-74",[1],650
B1,"ratio MR (+Heregulin)/MR (-Heregulin), against HER3-ECD alone",HER3 ECD-HRG complex [2],3 fold
same,"ratio ka (+Heregulin)/ka (-Heregulin), against HER3-ECD alone",HER3 ECD-HRG complex [2],4.85 fold
same,"ratio MR (+Heregulin)/MR (-Heregulin), against HER4-ECD alone",HER4 ECD-HRG complex,6 fold
same,"ratio ka (+Heregulin)/ka (-Heregulin), against HER4-ECD alone",HER4 ECD-HRG complex,23.9 fold
B2,Kd,HER3 ECD-HRG complex [3],4.1 nM
same,Kd,[4],3.2 nM
B3,Kd,HER3 ECD-HRG complex [3],8.6 nM
same,Kd,[5],8.3 nM
